Laboratory results: the supplement of paper PMC9233669
This sample holds only a part of the variants without activity.

How the values were obtained:
biotinyl-Leu-oxazolone = test: self-aminoacylation, catalytic enhancement (BLO) (fold over background); higher = more active; k-Seq, kA / k0A0; sequences stand for … in GGGAAUGGAUCCACAUCUACGAAUUC…UUCACUGCAGACUUGACGAAGCUG
In short: (§1)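 Mutagenized RNA pools (0.43 μM; 21-nt variable region) were treated with 2–1250 μM of each biotinyl-aminoacyl-oxazolone. Conditions were 50 μL HEPES/NaCl/KCl/MgCl2/CaCl2 buffer, 5% acetonitrile, pH 6.9–7.0, room temperature, 90 minutes. Catalytic enhancement, the median kA relative to the uncatalyzed rate, was derived from streptavidin capture, qPCR and Illumina sequencing.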

biotinyl-Phe-oxazolone = test: self-aminoacylation, catalytic enhancement (BFO) (fold over background); higher = more active; k-Seq, kA / k0A0; sequences stand for … in GGGAAUGGAUCCACAUCUACGAAUUC…UUCACUGCAGACUUGACGAAGCUG
In short: as §1

biotinyl-Trp-oxazolone = test: self-aminoacylation, catalytic enhancement (BWO) (fold over background); higher = more active; k-Seq, kA / k0A0; sequences stand for … in GGGAAUGGAUCCACAUCUACGAAUUC…UUCACUGCAGACUUGACGAAGCUG
In short: as §1

biotinyl-Val-oxazolone = test: self-aminoacylation, catalytic enhancement (BVO) (fold over background); higher = more active; k-Seq, kA / k0A0; sequences stand for … in GGGAAUGGAUCCACAUCUACGAAUUC…UUCACUGCAGACUUGACGAAGCUG
In short: as §1

biotinyl-Ile-oxazolone = test: self-aminoacylation, catalytic enhancement (BIO) (fold over background); higher = more active; k-Seq, kA / k0A0; sequences stand for … in GGGAAUGGAUCCACAUCUACGAAUUC…UUCACUGCAGACUUGACGAAGCUG
In short: as §1

biotinyl-Met-oxazolone = test: self-aminoacylation, catalytic enhancement (BMO) (fold over background); higher = more active; k-Seq, kA / k0A0; sequences stand for … in GGGAAUGGAUCCACAUCUACGAAUUC…UUCACUGCAGACUUGACGAAGCUG
In short: as §1

| Sequence | self-aminoacylation (biotinyl-Leu-oxazolone) | self-aminoacylation (biotinyl-Phe-oxazolone) | self-aminoacylation (biotinyl-Trp-oxazolone) | self-aminoacylation (biotinyl-Val-oxazolone) | self-aminoacylation (biotinyl-Ile-oxazolone) | self-aminoacylation (biotinyl-Met-oxazolone) |
| --- | --- | --- | --- | --- | --- | --- |
| AUUCACUUAAGUCAUCGGGUG [Fam2.2 aminoacylation ribozyme variant] | 12.4 | 71.7 | 9.67 | 5.11 | 5.72 | 8.88 |
| AUUCACUUAGGUCAUCGAGUG [Fam2.2 aminoacylation ribozyme variant] | 2.75 | 4.43 | 1.99 | 1.64 | 1.68 | 2.42 |
| AUUCACUUAGGUCAUCGCGUG [Fam2.2 aminoacylation ribozyme variant] | 15 | 94.5 | 11.1 | 6.11 | 6.03 | 11.7 |
| AUUCACUUAGGUCAUCGGAUG [Fam2.2 aminoacylation ribozyme variant] | 0.579 | 0.46 | 0.528 | 0.714 | 0.701 | 0.766 |
| AUUCACUUAGGUCAUCGGCUG [Fam2.2 aminoacylation ribozyme variant] | 1.17 | 4.69 | 1.45 | 1.65 | 1.46 | 1.47 |
| AUUCACUUAGGUCAUCGGGGG [Fam2.2 aminoacylation ribozyme variant] | 2.74 | 2.12 | 2.16 | 1.95 | 2.04 | 2.13 |
| AUUCACUUAGGUCAUCGUGUG [Fam2.2 aminoacylation ribozyme variant] | 0.869 | 0.821 | 0.747 | 0.777 | 0.779 | 0.802 |
| AUUCACUUAGGUGAUCGGGUG [Fam2.2 aminoacylation ribozyme variant] | 3.43 | 13.3 | 3.03 | 2.5 | 2.46 | 2.59 |
| AUUCACUUAUGUCAUCGGGUG [Fam2.2 aminoacylation ribozyme variant] | 7.31 | 42.6 | 5.18 | 3.08 | 3.42 | 5.5 |
| AUUCACUUGGGUCAUCGGGUG [Fam2.2 aminoacylation ribozyme variant] | 7.5 | 43.9 | 6.5 | 4.44 | 4.61 | 6.84 |
| AUUCAGCUAGAUCAUCGGGUG [Fam2.2 aminoacylation ribozyme variant] | 4.61 | 26.3 | 3.9 | 2.85 | 2.71 | 4.04 |
| AUUCAGCUAGGACAUCGGGUG [Fam2.2 aminoacylation ribozyme variant] | 5.98 | 42.1 | 4.43 | 3.53 | 3.53 | 4.65 |
| AUUCAGCUAGGUCAACGGGUG [Fam2.2 aminoacylation ribozyme variant] | 2.43 | 5.84 | 2.6 | 1.83 | 1.81 | 1.92 |
| AUUCAGCUAGGUCACCGGGUG [Fam2.2 aminoacylation ribozyme variant] | 6.32 | 51.6 | 7.07 | 4.32 | 4.69 | 7.17 |
| AUUCAGCUAGGUCAUCCGGUG [Fam2.2 aminoacylation ribozyme variant] | 8.88 | 44.2 | 8.08 | 5.44 | 5.29 | 6.6 |
| AUUCAGCUAGGUCAUCGGGAG [Fam2.2 aminoacylation ribozyme variant] | 1.69 | 4.09 | 1.32 | 1.68 | 1.72 | 1.61 |
| AUUCAGCUCGGUCAUCGGGUG [Fam2.2 aminoacylation ribozyme variant] | 9.01 | 78.7 | 7.34 | 5.43 | 4.88 | 9.53 |
| AUUCAGCUGGGUCAUCGGGUG [Fam2.2 aminoacylation ribozyme variant] | 5.07 | 37.9 | 4.72 | 4.76 | 3.79 | 5.66 |
| AUUCAUCAAGGUCAUCGGGUG [Fam2.2 aminoacylation ribozyme variant] | 10.9 | 74.7 | 10.2 | 5.94 | 5.94 | 9.84 |
| AUUCAUCUAGAUCAUCGGGUG [Fam2.2 aminoacylation ribozyme variant] | 4.1 | 14.1 | 3.24 | 2.14 | 2.1 | 2.68 |
| AUUCAUCUAGGCCAUCGGGUG [Fam2.2 aminoacylation ribozyme variant] | 5.22 | 19 | 3 | 2.84 | 2.39 | 3.38 |
| AUUCAUCUAGGGCAUCGGGUG [Fam2.2 aminoacylation ribozyme variant] | 4.32 | 21.4 | 2.7 | 2.97 | 2.81 | 3.45 |

| Sequence | self-aminoacylation (biotinyl-Leu-oxazolone) | self-aminoacylation (biotinyl-Phe-oxazolone) | self-aminoacylation (biotinyl-Trp-oxazolone) | self-aminoacylation (biotinyl-Val-oxazolone) | self-aminoacylation (biotinyl-Ile-oxazolone) | self-aminoacylation (biotinyl-Met-oxazolone) |
| --- | --- | --- | --- | --- | --- | --- |
| AUUCAUCUAGGUCAUAGGGUG [Fam2.2 aminoacylation ribozyme variant] | 3.39 | 10.1 | 2.83 | 1.87 | 2 | 2.63 |
| AUUCAUCUAGGUCAUCGGGGG [Fam2.2 aminoacylation ribozyme variant] | 2.31 | 5.32 | 2.14 | 1.9 | 1.82 | 2.13 |
| AUUCAUCUAUGUCAUCGGGUG [Fam2.2 aminoacylation ribozyme variant] | 8.74 | 50.7 | 6.27 | 3.8 | 4.09 | 6.63 |
| AUUCAUUUAGGUCAUCGGGUG [Fam2.2 aminoacylation ribozyme variant] | 6.72 | 45.6 | 5.6 | 3.33 | 3.25 | 5.48 |
| AUUCCCCAGGUCAUCGAGUGA [Fam2.1 aminoacylation ribozyme variant] | 4.83 | 21.1 | 6.65 | 3.75 | 3.12 | 4.86 |
| AUUCCCCGGGUCAUCGAGUGA [Fam2.1 aminoacylation ribozyme variant] | 4.99 | 30 | 6.46 | 2.92 | 3.32 | 4.59 |
| AUUCCCCUAGGUCAUCGCGUG [Fam2.2 aminoacylation ribozyme variant] | 141 | 826 | 99.5 | 77.6 | 64.1 | 102 |
| AUUCCCCUAGGUCAUCGGGUG [Fam2.2 aminoacylation ribozyme variant] | 32.9 | 196 | 23.2 | 14.9 | 14.9 | 24.4 |
| AUUCCCCUAGGUCAUUGGGUG [Fam2.2 aminoacylation ribozyme variant] | 15.6 | 92.5 | 11.8 | 7.95 | 7.23 | 10.3 |
| AUUCCCCUAGGUCGUCGGGUG [Fam2.2 aminoacylation ribozyme variant] | 9.19 | 31.9 | 7.42 | 5.97 | 5.97 | 7.13 |
| AUUCCCCUAUGUCAUCGGGUG [Fam2.2 aminoacylation ribozyme variant] | 23.5 | 154 | 18.4 | 10.9 | 12.2 | 19.2 |
| AUUCCCCUGGUCAUCGAGUGC [Fam2.1 aminoacylation ribozyme variant] | 1.63 | 1.33 | 2.07 | 1.64 | 1.36 | 1.35 |
| AUUCCCCUGGUCAUCGAGUGU [Fam2.1 aminoacylation ribozyme variant] | 3.28 | 15.2 | 3.8 | 2.61 | 2.39 | 3.09 |
| AUUCCCCUGGUCAUCGCGUGA [Fam2.1 aminoacylation ribozyme variant] | 28.2 | 213 | 26.8 | 15 | 12.2 | 22.1 |
| AUUCCCCUGGUCAUCGGGUGA [Fam2.1 aminoacylation ribozyme variant] | 14.4 | 106 | 15.6 | 8.68 | 7.79 | 14.1 |
| AUUCCCCUGGUCGUCGAGUGA [Fam2.1 aminoacylation ribozyme variant] | 1.71 | 6.18 | 1.52 | 1.33 | 1.48 | 1.42 |
| AUUCCCCUGGUCUUCGAGUGA [Fam2.1 aminoacylation ribozyme variant] | 9.91 | 64.6 | 11.8 | 5.87 | 5.69 | 9.43 |
| AUUCCCCUGGUGAUCGAGUGA [Fam2.1 aminoacylation ribozyme variant] | 5.91 | 36.9 | 6.06 | 3.13 | 3.12 | 5.51 |
| AUUCGCCUAAGUCAUCGGGUG [Fam2.2 aminoacylation ribozyme variant] | 15.6 | 117 | 11.7 | 7.95 | 7.83 | 12.9 |
| AUUCGCCUAGGCCAUCGGGUG [Fam2.2 aminoacylation ribozyme variant] | 5.27 | 35.5 | 4.7 | 4.16 | 3.15 | 4.46 |
| AUUCGCCUAGGGCAUCGGGUG [Fam2.2 aminoacylation ribozyme variant] | 5.64 | 26.1 | 4.92 | 3.45 | 3.24 | 5.3 |
